{"source": "paper PMC8170886", "target": "bacteriophage P22 coat protein (bacteriophage P22) (UniProt P26747)", "assay": "densitometry of SDS-PAGE of the purified particles; purified ASNase-P22 nanoreactors from different chromatograms, bands quantified with ImageJ; numbers per capsid calculated on 420 CP", "data": [{"substance": "ASNase-SP chimeric protein (E. coli asparaginase II fused to the bacteriophage P22 scaffold protein) (from UniProt P00805 23-348) (enzyme)", "values": [{"measurement": "ASNase-SP tetramers per capsid of 420 CP (tetramers per capsid)", "result": 110}, {"measurement": "monomers per capsid (monomers per capsid)", "result": 448}, {"measurement": "percent ASNase-SP in the nanoreactor's protein (densitometry)", "result": 41.6, "unit": "%"}, {"measurement": "percent CP in the nanoreactor's protein (densitometry)", "result": 58.4, "unit": "%"}]}]}
